Experimental data: patent US20260049151A1 (SHENGHE CHINA BIOPHARMACEUTICAL, published 2026)
Read-outs that look alike come from different tables or passages of the source.

T1: Human TNFR2 mFc (human, UniProt P20333 23-257)
T1 construct: Bought protein; not shown: mFc
T1 sequence (looked up): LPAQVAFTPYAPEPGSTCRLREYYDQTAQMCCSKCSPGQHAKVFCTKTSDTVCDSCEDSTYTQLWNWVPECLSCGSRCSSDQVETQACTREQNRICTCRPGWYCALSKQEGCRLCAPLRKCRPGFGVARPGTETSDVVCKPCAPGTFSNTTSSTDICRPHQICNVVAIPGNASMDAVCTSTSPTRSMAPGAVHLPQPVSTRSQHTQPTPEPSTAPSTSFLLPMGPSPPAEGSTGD

T2: Human-TNFR2-His (human, UniProt P20333 23-257)
T2 construct: Bought protein; also called human TNFR2 protein; TNFR2 protein; not shown: His tag
T2 sequence (looked up): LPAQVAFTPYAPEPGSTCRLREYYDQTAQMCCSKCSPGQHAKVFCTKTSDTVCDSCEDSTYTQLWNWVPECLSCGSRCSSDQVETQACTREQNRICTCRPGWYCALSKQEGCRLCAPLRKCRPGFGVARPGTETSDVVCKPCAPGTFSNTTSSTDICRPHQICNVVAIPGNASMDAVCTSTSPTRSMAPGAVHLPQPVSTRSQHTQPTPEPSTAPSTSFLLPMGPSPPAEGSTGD


Key:
Human TNFR2 mFc = target: T1, Human TNFR2 mFc; assay: bridging ELISA: Human TNFR2 mFc coated (0.3 ug/mL), antibody titrated, then Human 4-1BB His (0.3 ug/mL), HRP anti-His detection (Example 5)
Procedure: Human TNFR2 mFc (manufacturer: Kaixia, CAT: TN-HM3R2, LOT: 031202) was diluted to 0.3 μg/mL with a coating solution (1×PBS, pH7.4) and coated into a 96-well ELISA plate at 100 μL/well at 4° C. overnight. The coating solution was poured off. Each well was washed with 1×PBST at 300 μL, washed 4 times with a plate washer, and patted dry on a flat paper. It was blocked with 3% skim milk powder at 300 μL/well, and incubated at 37° C. for 1 h. The blocking solution was poured off, washed 4 times with a plate washer, and patted dry on a flat paper. […] Starting at 50 nM, which was used as the initial concentration for 3-fold dilution, a total of 10 gradients were diluted, and a blank well was set up and only the diluent was added. It was incubated at 37° C. for 1 h at 100 µL/well. The liquid in the well was discarded, washed 4 times with a plate washer, and patted dry on a flat paper. Human 4-1BB His (manufacturer: Acro, CAT: 41B-H5258, LOT: 198-2146F1-W6) was diluted to 0.3 μg/mL, 100 μL was added to each well, and incubated at room temperature for 1 h. The plate was washed 3 times with PBST, and then the HRP-labeled his antibody was diluted with sample diluent at 1:5000, 100 μ L was added to each well, and incubated at room temperature for 1 h. It was washed 6 times with a plate washer, and patted dry on a flat paper. TMB color developing solution was added at 100 μL/well, and wrapped with aluminum foil. Color development was performed at 37° C. in the dark for 8 min. Termination solution 1M HCl was added to terminate the color development reaction at 100 μL/well. Readings were taken at 450 nm on an ELISA reader.

Human 4-1BB His [1] = target: T3, Human 4-1BB His (human, UniProt Q07011 24-186); assay: ELISA: Human 4-1BB His coated (0.2 ug/mL), antibody titrated, goat anti-human IgG Fc detection (Example 3)
T3 construct: Bought protein; lots 198-2146F1-W6 and 2407c-214FF1-YC; also called human 4-1BB protein; 4-1BB protein; not shown: His tag
T3 sequence (Q07011 24-186 limits assumed): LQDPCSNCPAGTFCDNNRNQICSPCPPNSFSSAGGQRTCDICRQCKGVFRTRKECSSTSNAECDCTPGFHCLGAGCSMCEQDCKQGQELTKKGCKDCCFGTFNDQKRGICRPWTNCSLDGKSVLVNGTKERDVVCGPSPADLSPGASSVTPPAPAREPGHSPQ
Procedure: (§1) Human 4-1BB His (manufacturer: Acro, CAT: 41B-H5258, LOT: 198-2146F1-W6) was diluted to 0.2 μg/mL with a coating solution (1×PBS, pH7.4), and coated in 96-well ELISA plate at 100 μL/well overnight at 4° C. The coating solution was poured off. Each well was washed with 1×PBST at 300 μL, washed 4 times with a plate washer, and patted dry on a flat paper. It was blocked with 3% skim milk powder at 300 μL/well, and incubated at 37° C. for 1 h. The blocking solution was poured off, washed 4 times with a plate washer, and patted dry on a flat paper. Negative control and positive control were set up. […] The variable region of the antibody sequence of the positive control consists of SEQ ID NO: 15 and SEQ ID NO: 19, with the addition of the constant region of human IgG1 (SEQ ID NO: 46 and SEQ ID NO: 47). The positive control and antibody were diluted to 10 μg/mL with 3% skim milk powder as the starting concentration, and then diluted by 3-fold gradient (11 gradients in total), and a blank well was set up and only the diluent was added. It was incubated at 37° C. for 1 h at 100 μL/well. The liquid in the well was discarded, washed 4 times with a plate washer, and patted dry on a flat paper. Goat anti-human IgG Fc was diluted with 3% skim milk powder at 1:20000, and incubated at 37° C. for 1 h at 100 μL/well. It was washed 6 times with a plate washer, and patted dry on a flat paper. TMB color developing solution was added at 100 μL/well, and wrapped with aluminum foil. Color development was performed at 37° C. in the dark for 8 min. Termination solution 1M HCl was added to terminate the color development reaction at 100 μL/well. Readings were taken at 450 nm on an ELISA reader.

Human-TNFR2-His [2] = target: T2, Human-TNFR2-His; assay: ELISA: Human-TNFR2-His coated (0.1 ug/mL), antibody titrated, goat anti-human IgG Fc detection (Example 2)
Procedure: (§2) Human-TNFR2-His (manufacturer: SINO, CAT: 10417-H08H, LOT: LC15NO0412) was diluted to 0.1 μg/mL with a coating solution (1×PBS, pH7.4), and coated in 96-well ELISA plate at 100 µL/well overnight at 4° C. The coating solution was poured off. Each well was washed with 1×PBST at 300 μL, washed 4 times with a plate washer, and patted dry on a flat paper. It was blocked with 3% skim milk powder at 300 μL/well, and incubated at 37° C. for 1 h. The blocking solution was poured off, washed 4 times with a plate washer, and patted dry on a flat paper. Negative control and positive control were set up. […] The positive control and antibody were diluted to 10 μg/mL with 3% skim milk powder as the starting concentration, and then diluted by 3-fold gradient (11 gradients in total), and a blank well was set up and only the diluent was added. It was incubated at 37° C. for 1 h at 100 μL/well. The liquid in the well was discarded, washed 4 times with a plate washer, and patted dry on a flat paper. Goat anti-human IgG Fc was diluted with 3% skim milk powder at 1:10000, and incubated at 37° C. for 1 h at 100 μL/well. It was washed 6 times with a plate washer, and patted dry on a flat paper. TMB color developing solution was added at 100 μL/well, and wrapped with aluminum foil. Color development was performed at 37° C. in the dark for 8 min. Termination solution 1M HCl was added to terminate the color development reaction at 100 μL/well. Readings were taken at 450 nm on an ELISA reader.

Human 4-1BB Fc = target: T4, Human 4-1BB Fc (human, UniProt Q07011 24-186); assay: bridging ELISA: Human 4-1BB Fc coated (0.3 ug/mL), antibody titrated, then Human-TNFR2-His (0.3 ug/mL), HRP anti-His detection (Example 4)
T4 construct: same catalogue and lot number as Human 4-1BB His; not shown: Fc
T4 sequence (Q07011 24-186 limits assumed): as above
Procedure: Human 4-1BB Fc (manufacturer: Acro, CAT: 41B-H5258, LOT: 198-2146F1-W6) was diluted to 0.3 μg/mL with a coating solution (1×PBS, pH7.4) and coated into a 96-well ELISA plate at 100 µL/well at 4° C. overnight. The coating solution was poured off. Each well was washed with 1×PBST at 300 μL, washed 4 times with a plate washer, and patted dry on a flat sheet. It was blocked with 3% skim milk powder at 300 μL/well, and incubated at 37° C. for 1 h. The blocking solution was poured off, washed 4 times with a plate washer, and patted dry on a flat sheet. […] Starting at 50 nM, which was used as the initial concentration for 3-fold dilution, a total of 10 gradients were diluted, and a blank well was set up and only the diluent was added. It was incubated at 37° C. for 1 h at 100 μL/well. The liquid in the well was discarded, washed 4 times with a plate washer, and patted dry on a flat paper. Human-TNFR2-His (manufacturer: Sino, CAT: 10417-H08H, LOT: LC15NO0412) was diluted to 0.3 μg/mL, 100 μL was added to each well, and incubated at room temperature for 1 h. The plate was washed 3 times with PBST, and then the HRP-labeled his antibody was diluted with sample diluent at 1:5000, 100 μ L was added to each well, and incubated at room temperature for 1 h. It was washed 6 times with a plate washer, and patted dry on a flat paper. TMB color developing solution was added at 100 μL/well, and wrapped with aluminum foil. Color development was performed at 37° C. in the dark for 8 min. Termination solution 1M HCl was added to terminate the color development reaction at 100 μL/well. Readings were taken at 450 nm on an ELISA reader.

Human 4-1BB His [3] = target: T3, Human 4-1BB His; assay: ELISA: Human 4-1BB His coated (0.2 ug/mL), antibody titrated, goat anti-human IgG Fc detection (Example 3); remark: listed apart in the source
Procedure: as §1

Human-TNFR2-His [4] = target: T2, Human-TNFR2-His; assay: ELISA: Human-TNFR2-His coated (0.1 ug/mL), antibody titrated, goat anti-human IgG Fc detection (Example 2); remark: listed apart in the source
Procedure: as §2

Human-TNFR2-His [5] = target: T2, Human-TNFR2-His; assay: as above; remark: listed apart in the source
Procedure: as §2

Human-TNFR2-His [6] = target: T2, Human-TNFR2-His; assay: as above; remark: listed apart in the source
Procedure: as §2

Human-TNFR2-His [7] = target: T2, Human-TNFR2-His; assay: BLI, antibody on AHC sensor, 100 nM TNFR2-His in solution
Procedure: The AHC sensor was soaked in 0.02% PBST (0.02% Tween 20, pH 7.4, 1×PBS) as a buffer for 600 s to remove the sucrose covering the sensor surface. The AHC sensor was equilibrated with 0.02% PBST (0.02% Tween 20, pH 7.4, 1×PBS) as a buffer for 60 s, the antibody in the sample plate was solidified for 300 s, and the secondary equilibration buffer was used for 180 s. 100 nM human-TNFR2-His (manufacturer: SINO, CAT: 10417-H08H, LOT: LC15NO0412) protein was bound to the antibody for 300 s and then dissociated for 600 s. After dissociation, 10 mM glycine (pH 2.0) was used as a regeneration buffer for 30 s. The sensor was regenerated with 10 mM glycine (pH 2.0).

Human-TNFR2-His [8] = target: T2, Human-TNFR2-His; assay: ELISA: Human-TNFR2-His coated (0.1 ug/mL), antibody titrated, goat anti-human IgG Fc detection (Example 2); remark: listed apart in the source
Procedure: as §2

| EC50 (read off the curve) (Human TNFR2 mFc) | EC50 (read off the curve) (Human 4-1BB His [1]) | EC50 (read off the curve) (Human-TNFR2-His [2]) | EC50 (read off the curve) (Human 4-1BB Fc) | EC50 (read off the curve) (Human 4-1BB His [3]) | EC50 (read off the curve) (Human-TNFR2-His [4]) | EC50 (read off the curve) (Human-TNFR2-His [5]) | EC50 (read off the curve) (Human-TNFR2-His [6]) | Kd (Human-TNFR2-His [7]) | koff (Human-TNFR2-His [7]) | kon (Human-TNFR2-His [7]) | EC50 (read off the curve) (Human-TNFR2-His [8]) | Binder |
| --- | --- | --- | --- | --- | --- | --- | --- | --- | --- | --- | --- | --- |
| ~0.2 nM | ~0.1 nM | ~0.06 nM | ~0.5 nM | – | – | – | – | – | – | – | – | Antibody C (bispecific antibody, human IgG1, kappa, IgG1 subtype; full-length 4-1BB antibody with TNFR2 scFv at the N-terminus of the heavy chains) light: DIQMTQSPSSLSASLGDRVTISCSASQGISNYLNWYQQKPDGTVKLLIYYTSTLHSGVPSRFSGSGSGTDYTLTISSLQPEDIATYYCQQYSKLPWTFGGGTKLEIKRTVAAPSVFIFPPSDEQLKSGTASVVCLLNNFYPREAKVQWKVDNALQSGNSQESVTEQDSKDSTYSLSSTLTLSKADYEKHKVYACEVTHQGLSSPVTKSFNRGEC heavy: not shown |
| – | – | – | – | ~0.2 nM | ~0.2 nM | – | – | – | – | – | – | Antibody J2 (bispecific antibody, human IgG4 S228P, kappa, IgG4 subtype; same order as J1) light: DIQMTQSPSSLSASLGDRVTISCSASQGISNYLNWYQQKPDGTVKLLIYYTSTLHSGVPSRFSGSGSGTDYTLTISSLQPEDIATYYCQQYSKLPWTFGGGTKLEIKRTVAAPSVFIFPPSDEQLKSGTASVVCLLNNFYPREAKVQWKVDNALQSGNSQESVTEQDSKDSTYSLSSTLTLSKADYEKHKVYACEVTHQGLSSPVTKSFNRGEC heavy: not shown |
| – | – | ~0.03 nM | – | – | – | ~0.03 nM | ~0.03 nM | 0.0724 nM | 1.86e-05 s⁻¹ | 257000 M⁻¹ s⁻¹ | ~0.03 nM | Positive control 1 (anti-TNFR2 antibody, human IgG1) (antibody, V domains shown) VH: EVQLVQSGAEVKKPGATVKISCKVSGYSITDYLLHWVQQAPGKGLEWMGWIDPEDAKTKYGQKFQSRVTITADTSTDTAYMELSSLRSEDTAVYYCAANSGTGTMDAWGQGTLVTVSS VL: DIVMTQSPATLSVSPGERATLSCKASQNVGSNVDWYQQKPGQSPRVLIYKASIRYTGIPARFSGSGSGTEFTLTISILQSEDFAVYFCMQSKSYPITFGQGTKLEIK |
